This note sets out measurements from PMC11577023.

The stoichiometry N is the number of molecules, sites or subunits per partner or assembly.

Test in all cases: […] (pH 7.4), 0.5 mL/min; […]
Assay [1] has as its target rTET-NA derived from A/Michigan/45/2015 N1 (not stated | influenza A virus A/Michigan/45/2015 (H1N1)).
Assay [2] has as its target rTET-NA derived from A/Singapore/INFIMH-16-0019/2016 N2 (not stated | influenza A virus A/Singapore/INFIMH-16-0019/2016 (H3N2)).
Assay [3] has as its target rTET-NA derived from B/Colorado/06/2017 (B/Victoria/2/87-like lineage) (not stated | influenza B virus B/Colorado/06/2017 (B/Victoria/2/87-like lineage)).
The target in assay [4] is rTET-NA derived from B/Phuket/3073/2013 (B/Yamagata/16/88-like lineage) (not stated | influenza B virus B/Phuket/3073/2013 (B/Yamagata/16/88-like lineage)).

On to “rTET-NA derived from A/Michigan/45/2015 N1 (enzyme)”, for which, in assay [1], the stoichiometry N is 4. As for “rTET-NA derived from A/Singapore/INFIMH-16-0019/2016 N2 (enzyme)”, the stoichiometry N in assay [2] amounted to 4.

The substance “rTET-NA derived from B/Colorado/06/2017 (B/Victoria/2/87-like lineage) (enzyme)” displayed a stoichiometry N in assay [3] of 4.

Regarding “rTET-NA derived from B/Phuket/3073/2013 (B/Yamagata/16/88-like lineage) (enzyme)”, the stoichiometry N in assay [4] was 4.
